In FireProtDB (doi:10.1021/bi047926u):
Several values for one entry are separate records, joined by “and”; a condition that tells them apart may be missing. Equal entries are not always repeated.

B1: Manganese-dependent inorganic pyrophosphatase, P37487 (parent)
chain: MEKILIFGHQNPDTDTICSAIAYADLKNKLGFNAEPVRLGQVNGETQYALDYFKQESPRLVETAANEVNGVILVDHNERQQSIKDIEEVQVLEVIDHHRIANFETAEPLYYRAEPVGCTATILNKMYKENNVKIEKEIAGLMLSAIISDSLLFKSPTCTDQDVAAAKELAEIAGVDAEEYGLNMLKAGADLSKKTVEELISLDAKEFTLGSKKVEIAQVNTVDIEDVKKRQAELEAVISKVVAEKNLDLFLLVITDILENDSLALAIGNEAAKVEKAFNVTLENNTALLKGVVSRKKQVVPVLTDAMAE

Variants of: B1
Details: Bacillus subtilis (strain 168); pH 7.2; Thermal; CD; TES-KOH 21 mM; KCl 4 mM; reversible: No; structure 1K23; whole UniProt chain shown

| Variant | Tm |
| --- | --- |
| MEKILIFGHQNPDTDTICSAIAYADLKNKLGFNAEPVRLGQVNGETQYALDYFKQESPRLVETAANEVNGVILVDHNERQQSIKDIEEVQVLEVIDHQRIANFETAEPLYYRAEPVGCTATILNKMYKENNVKIEKEIAGLMLSAIISDSLLFKSPTCTDQDVAAAKELAEIAGVDAEEYGLNMLKAGADLSKKTVEELISLDAKEFTLGSKKVEIAQVNTVDIEDVKKRQAELEAVISKVVAEKNLDLFLLVITDILENDSLALAIGNEAAKVEKAFNVTLENNTALLKGVVSRKKQVVPVLTDAMAE [H98Q] | 48 °C |
| MEKILIFGHQNPDTDTICSAIAYADLKNKLGFNAEPVRLGQVNGETQYALDYFKQESPRLVETAANEVNGVILVDHNERQQSIKDIEEVQVLEVIDHHRIANFETAEPLYYRAEPVGCTATILNKMYKENNVKIEKEIAGLMLSAIISESLLFKSPTCTDQDVAAAKELAEIAGVDAEEYGLNMLKAGADLSKKTVEELISLDAKEFTLGSKKVEIAQVNTVDIEDVKKRQAELEAVISKVVAEKNLDLFLLVITDILENDSLALAIGNEAAKVEKAFNVTLENNTALLKGVVSRKKQVVPVLTDAMAE [D149E] | 52 °C and 47 °C |
| MEKILIFGHQNPDTDTICSAIAYADLKNKLGFNAEPVRLGQVNGETQYALDYFKQESPRLVETAANEVNGVILVDQNERQQSIKDIEEVQVLEVIDHHRIANFETAEPLYYRAEPVGCTATILNKMYKENNVKIEKEIAGLMLSAIISDSLLFKSPTCTDQDVAAAKELAEIAGVDAEEYGLNMLKAGADLSKKTVEELISLDAKEFTLGSKKVEIAQVNTVDIEDVKKRQAELEAVISKVVAEKNLDLFLLVITDILENDSLALAIGNEAAKVEKAFNVTLENNTALLKGVVSRKKQVVPVLTDAMAE [H76Q] | 59 °C |
| MEKILIFGHQNPDTDTICSAIAYADLKNKLGFNAEPVRLGQVNGETQYALDYFKQESPRLVETAANEVNGVILVDHNERQQSIKDIEEVQVLEVIDHHRIANFETAEPLYYRAEPVGCTATILNKMYKENNVKIEKEIAGLMLSAIISDSLLFKSPTCTDQDVAAAKELAEIAGVDAEEYGLNMLKAGADLSKKTVEELISLEAKEFTLGSKKVEIAQVNTVDIEDVKKRQAELEAVISKVVAEKNLDLFLLVITDILENDSLALAIGNEAAKVEKAFNVTLENNTALLKGVVSRKKQVVPVLTDAMAE [D203E] | 42 °C |
| MEKILIFGQQNPDTDTICSAIAYADLKNKLGFNAEPVRLGQVNGETQYALDYFKQESPRLVETAANEVNGVILVDHNERQQSIKDIEEVQVLEVIDHHRIANFETAEPLYYRAEPVGCTATILNKMYKENNVKIEKEIAGLMLSAIISDSLLFKSPTCTDQDVAAAKELAEIAGVDAEEYGLNMLKAGADLSKKTVEELISLDAKEFTLGSKKVEIAQVNTVDIEDVKKRQAELEAVISKVVAEKNLDLFLLVITDILENDSLALAIGNEAAKVEKAFNVTLENNTALLKGVVSRKKQVVPVLTDAMAE [H9Q] | 54 °C |
| MEKILIFGHQNPETDTICSAIAYADLKNKLGFNAEPVRLGQVNGETQYALDYFKQESPRLVETAANEVNGVILVDHNERQQSIKDIEEVQVLEVIDHHRIANFETAEPLYYRAEPVGCTATILNKMYKENNVKIEKEIAGLMLSAIISDSLLFKSPTCTDQDVAAAKELAEIAGVDAEEYGLNMLKAGADLSKKTVEELISLDAKEFTLGSKKVEIAQVNTVDIEDVKKRQAELEAVISKVVAEKNLDLFLLVITDILENDSLALAIGNEAAKVEKAFNVTLENNTALLKGVVSRKKQVVPVLTDAMAE [D13E] | 44 °C and 42 °C |

Same assay, conditions: Bacillus subtilis (strain 168); pH 7.2; Thermal; CD; TES-KOH 21 mM; KCl 4 mM; transition: 3; reversible: No; structure 1K23; whole UniProt chain shown

| Variant | Tm [°C] |
| --- | --- |
| MEKILIFGHQNPETDTICSAIAYADLKNKLGFNAEPVRLGQVNGETQYALDYFKQESPRLVETAANEVNGVILVDHNERQQSIKDIEEVQVLEVIDHHRIANFETAEPLYYRAEPVGCTATILNKMYKENNVKIEKEIAGLMLSAIISDSLLFKSPTCTDQDVAAAKELAEIAGVDAEEYGLNMLKAGADLSKKTVEELISLDAKEFTLGSKKVEIAQVNTVDIEDVKKRQAELEAVISKVVAEKNLDLFLLVITDILENDSLALAIGNEAAKVEKAFNVTLENNTALLKGVVSRKKQVVPVLTDAMAE [D13E] | 69 |
